From US20250320281A1

Legend:
Test in all cases: cell-based or functional assay
[1] = target: HIV-1 Env of isolate MGRM-A-006 (HIV-1)
[2] = target: HIV-1 Env of isolate MGRM-A-012 (subtype A) (HIV-1)
[3] = target: HIV-1 Env of isolate 92UG114 (HIV-1)
[4] = target: HIV-1 Env of isolate MGRM-C-001 (subtype C) (HIV-1)
[5] = target: HIV-1 Env of isolate MGRM-Chronic-B-020 (subtype B) (HIV-1)
[6] = target: HIV-1 Env of isolate MGRM-A-009 (subtype A) (HIV-1)
[7] = target: HIV-1 Env of isolate MGRM-C-002 (subtype C) (HIV-1)
[8] = target: HIV-1 Env of isolate MGRM-A-014 (subtype A) (HIV-1)
[9] = target: HIV-1 Env of isolate THR0.18 (subtype B) (HIV-1)
[10] = target: HIV-1 Env of isolate 93UG077 (HIV-1)
[11] = target: HIV-1 Env of isolate 94KE105 (subtype AC) (HIV-1)
[12] = target: HIV-1 Env of isolate MGRM-AG-009 (subtype AG) (HIV-1)
[13] = target: HIV-1 Env of isolate CMU02 (subtype AE) (HIV-1)
[14] = target: HIV-1 Env of isolate MGRM-AE-008 (subtype AE) (HIV-1)
[15] = target: HIV-1 Env of isolate MGRM-A-010 (subtype A) (HIV-1)
[16] = target: HIV-1 Env of isolate 92BR020 (HIV-1)
[17] = target: HIV-1 Env of isolate MGRM-Chronic-B-011 (subtype B) (HIV-1)
[18] = target: HIV-1 Env of isolate 92UG005 (clade D), on pseudovirus (HIV-1)
[19] = target: HIV-1 Env of isolate 92TH021 (clade AE), on pseudovirus (HIV-1)
[20] = target: HIV-1 92BR020 Env (pseudovirus, clade B) (HIV-1)
[21] = target: HIV-1 Env of isolate MGRM-D-001 (clade D), on pseudovirus (HIV-1)

Sequence of 5329_C19 (PGT-136) (antibody) (VH): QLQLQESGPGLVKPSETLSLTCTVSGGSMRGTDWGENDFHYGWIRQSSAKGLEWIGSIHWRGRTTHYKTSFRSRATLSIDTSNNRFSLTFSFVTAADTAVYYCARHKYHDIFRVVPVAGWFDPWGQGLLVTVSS
Sequence of 5329_C19 (PGT-136) (antibody) (VL): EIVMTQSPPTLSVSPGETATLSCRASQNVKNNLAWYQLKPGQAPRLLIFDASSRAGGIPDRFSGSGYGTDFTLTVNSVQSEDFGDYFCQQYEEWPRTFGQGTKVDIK
Sequence of 5345_I01 (PGT-137) (antibody) (VH): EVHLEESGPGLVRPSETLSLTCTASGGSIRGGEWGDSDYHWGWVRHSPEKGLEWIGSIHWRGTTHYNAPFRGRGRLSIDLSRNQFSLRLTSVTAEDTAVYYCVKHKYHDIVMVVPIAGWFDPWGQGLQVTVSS
Sequence of 5345_I01 (PGT-137) (antibody) (VL): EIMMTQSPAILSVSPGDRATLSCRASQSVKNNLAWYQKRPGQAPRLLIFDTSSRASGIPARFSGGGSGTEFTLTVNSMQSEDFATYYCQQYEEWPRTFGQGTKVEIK

Substance | IC50 [1] | IC50 (µg/mL), pseudovirus neutralization [2] | IC50 (µg/mL), pseudovirus neutralization [3] | IC50 neutralization [4] | IC50 neutralization [5] | IC50 (µg/mL), pseudovirus neutralization [6] | IC50 neutralization [7] | IC50 (µg/mL), pseudovirus neutralization [8] | IC50 neutralization [9] | IC50 [10] | IC50 (µg/mL), pseudovirus neutralization [11] | IC50 (µg/mL), pseudovirus neutralization [12] | IC50 (µg/mL), pseudovirus neutralization [13] | IC50 (µg/mL), pseudovirus neutralization [14] | IC50 (µg/mL), pseudovirus neutralization [15] | neutralization IC50 [16] | IC50 neutralization [17] | IC50, pseudovirus neutralization [18] | IC50, pseudovirus neutralization [19] | IC50 neutralization [20] | further results
5114_A19 (PGT-128) (antibody) | > 50 µg/mL | 0.025 µg/mL | 0.083 µg/mL | > 50 µg/mL | 0.007 µg/mL | 0.005 µg/mL | 0.019 µg/mL | 0.007 µg/mL | > 50 µg/mL | 0.014 µg/mL | 0.007 µg/mL | 0.021 µg/mL | > 50 µg/mL | > 50 µg/mL | 0.005 µg/mL | 0.009 µg/mL | 0.02 µg/mL | – | – | – | –
5136_H01 (PGT-131) (antibody) | > 50 µg/mL | > 50 µg/mL | > 50 µg/mL | > 50 µg/mL | 0.053 µg/mL | 0.035 µg/mL | > 50 µg/mL | 15.4 µg/mL | > 50 µg/mL | > 50 µg/mL | 0.013 µg/mL | > 50 µg/mL | > 50 µg/mL | > 50 µg/mL | 0.01 µg/mL | 6.16 µg/mL | 6.47 µg/mL | – | – | – | –
5147_N06 (PGT-130) (antibody) | > 50 µg/mL | > 50 µg/mL | > 50 µg/mL | > 50 µg/mL | 0.014 µg/mL | 0.308 µg/mL | > 50 µg/mL | 0.161 µg/mL | > 50 µg/mL | 21.4 µg/mL | 0.004 µg/mL | 9.46 µg/mL | > 50 µg/mL | > 50 µg/mL | 0.005 µg/mL | 1.4 µg/mL | 0.153 µg/mL | 0.474 µg/mL | 0.0082 µg/mL | 1.12 µg/mL | IC50, pseudovirus neutralization [21]: > 10 µg/mL
5329_C19 (PGT-136) (antibody) | > 50 µg/mL | > 50 µg/mL | > 50 µg/mL | 7.52 µg/mL | > 50 µg/mL | > 50 µg/mL | > 50 µg/mL | > 50 µg/mL | > 50 µg/mL | > 50 µg/mL | > 50 µg/mL | > 50 µg/mL | > 50 µg/mL | > 50 µg/mL | > 50 µg/mL | 8.61 µg/mL | > 50 µg/mL | > 10 µg/mL | > 10 µg/mL | > 10 µg/mL | IC50, pseudovirus neutralization [21]: > 10 µg/mL
5343_B08 (PGT-135) (antibody) | > 50 µg/mL | > 50 µg/mL | 1.29 µg/mL | 10.1 µg/mL | 0.057 µg/mL | > 50 µg/mL | > 50 µg/mL | 0.636 µg/mL | > 50 µg/mL | > 50 µg/mL | 0.063 µg/mL | > 50 µg/mL | > 50 µg/mL | > 50 µg/mL | > 50 µg/mL | 0.073 µg/mL | > 50 µg/mL | > 10 µg/mL | > 10 µg/mL | 0.104 µg/mL | IC50, pseudovirus neutralization [21]: > 10 µg/mL
5345_I01 (PGT-137) (antibody) | > 50 µg/mL | > 50 µg/mL | > 50 µg/mL | 21.5 µg/mL | 32.9 µg/mL | > 50 µg/mL | 8.03 µg/mL | 18.6 µg/mL | > 50 µg/mL | > 50 µg/mL | 18.5 µg/mL | > 50 µg/mL | > 50 µg/mL | > 50 µg/mL | > 50 µg/mL | 7.81 µg/mL | > 50 µg/mL | – | – | – | –
